# Literature values in US20260077018A1, “TREATMENT OF MILD TRAUMATIC BRAIN INJURY” (OXEIA BIOPHARMACEUTICALS, INC., priority 2022, published 2026).
# No end group written: not given here. *: point of attachment. Octanoyl = CCCCCCCC(=O)*
# Legend:
# [1] = in vivo; cited from earlier work
# [2] = in vivo; cited from earlier work; remark: listed apart in the source
substance,measurement,setting,value
"ghrelin (GSS(Octanoyl)FLSPEHQRVQQRKESKKPPAKLQPR; UniProt Q9UBU3 24-51, looked up) [OXE-103]",serum half-life,[1],about 30 minutes
same,effects of long term use,[2],"increased appetite, weight gain, and adiposity"
same,safety in previous studies,[2],quite safe
